# Laboratory results published in US20240352102A1.
# “And” between values parts separate entries of the source, which are not always exact repeats. Equal values may be shown once. Read-outs that look alike come from different tables or passages of the source.
# Assays:
# Peptide_060 [1] = target: T1, Peptide_060; test: peptide microarray
# T1 sequence (peptide): LKHQPGGGKVQIINK
# Peptide_060 [2] = target: T1, Peptide_060; test: peptide microarray; remark: listed apart in the source
# Peptide_061 [3] = target: T2, Peptide_061; test: peptide microarray
# T2 sequence (peptide): PGGGKVQIINKKLDL
# Peptide_060 [4] = target: T1, Peptide_060; test: peptide microarray; remark: listed apart in the source
# Peptide_051 = target: T3, Peptide_051; test: peptide microarray
# T3 sequence (peptide): RTPPKSPSSAKSRLQ
# Peptide_061 [5] = target: T2, Peptide_061; test: peptide microarray; remark: listed apart in the source
# [6] = target: biotinylated a/B tubulin dimers; test: SPR, biotinylated tubulin dimers as probe on a streptavidin chip, tau in solution
substance,measurement,setting,value
ALZ50 (antibody),fluorescence intensity,Peptide_060 [1],2600
same,fluorescence intensity,Peptide_060 [2],3070
RD4 (antibody),fluorescence intensity,Peptide_060 [1],722
same,fluorescence intensity,Peptide_061 [3],10700
same,fluorescence intensity,Peptide_060 [4],738
same,fluorescence intensity,Peptide_051,163
same,fluorescence intensity,Peptide_061 [5],21000
T46 (antibody),fluorescence intensity,Peptide_060 [1],1650 and 844
same,fluorescence intensity,Peptide_061 [3],3020
TNT1 (antibody),fluorescence intensity,Peptide_060 [2],925 and 797
TNT2 (antibody),fluorescence intensity,Peptide_060 [2],771 and 1024
tau1 (antibody),fluorescence intensity,Peptide_060 [1],3040 and 1780
T14 (antibody),fluorescence intensity,Peptide_060 [1],1010
same,fluorescence intensity,Peptide_060 [4],840
TOC1 (antibody),fluorescence intensity,Peptide_060 [1],1580 and 1790
MC1 (antibody),fluorescence intensity,Peptide_060 [1],770 and 1100
Recombinant human tau isoform 1N4R (from UniProt P10636 1-412),Kd,[6],39.8 nM
